Experimental findings from paper PMC4805664 (2016) are described below.

Square brackets hold non-standard residues; d marks the D form. * marks the point of attachment. DOTA = O=C(O)CN1CCN(CC(=O)O)CCN(CC(=O)*)CCN(CC(=O)O)CC1

By Ki is commonly meant a dissociation constant, usually derived from enzyme kinetics or from competition with a known ligand. High values mean lower affinity, low ones higher affinity. As a reminder, the IC50 is the concentration that gives 50% inhibition. High values mean a need for much substance, low ones inhibition by little substance.

The target of assay [1] is T1, La-DOTA-c(RGDyK) (also: DOTA as La complex).
T1 chain: cyclo(RGD[dY]K(DOTA))
The assay can be described thus: SPR competition.

Assay [2] has as its target T1, La-DOTA-c(RGDyK). The assay can be described thus: SPR competition.

B1: Integrin alphaVbeta3 (protein)
chain 1: FNLDVDSPAEYSGPEGSYFGFAVDFFVPSASSRMFLLVGAPKANTTQPGIVEGGQVLKCDWSSTRRCQPIEFDATGNRDYAKDDPLEFKSHQWFGASVRSKQDKILACAPLYHWRTEMKQEREPVGTCFLQDGTKTVEYAPCRSQDIDADGQGFCQGGFSIDFTKADRVLLGGPGSFYWQGQLISDQVAEIVSKYDPNVYSIKYNNQLATRTAQAIFDDSYLGYSVAVGDFNGDGIDDFVSGVPRAARTLGMVYIYDGKNMSSLYNFTGEQMAAYFGFSVAATDINGDDYADVFIGAPLFMDRGSDGKLQEVGQVSVSLQRASGDFQTTKLNGFEVFARFGSAIAPLGDLDQDGFNDIAIAAPYGGEDKKGIVYIFNGRSTGLNAVPSQILEGQWAARSMPPSFGYSMKGATDIDKNGYPDLIVGAFGVDRAILYRARPVITVNAGLEVYPSILNQDNKTCSLPGTALKVSCFNVRFCLKADGKGVLPRKLNFQVELLLDKLKQKGAIRRALFLYSRSPSHSKNMTISRGGLMQCEELIAYLRDESEFRDKLTPITIFMEYRLDYRTAADTTGLQPILNQFTPANISRQAHILLDCGEDNVCKPKLEVSVDSDQKKIYIGDDNPLTLIVKAQNQGEGAYEAELIVSIPLQADFIGVVRNNEALARLSCAFKTENQTRQVVCDLGNPMKAGTQLLAGLRFSVHQQSEMDTSVKFDLQIQSSNLFDKVSPVVSHKVDLAVLAAVEIRGVSSPDHVFLPIPNWEHKENPETEEDVGPVVQHIYELRNNGPSSFSKAMLHLQWPYKYNNNTLLYILHYDIDGPMNCTSDMEINPLRIKISSLQTTEKNDTVAGQGERDHLITKRDLALSEGDIHTLGCGVAQCLKIVCQVGRLDRGKSAILYVKSLLWTETFMNKENQNHSYSLKSSASFNVIEFPYKNLPIEDITNSTLVTTNVTWGIQPAPMPV
chain 2: GPNICTTRGVSSCQQCLAVSPMCAWCSDEALPLGSPRCDLKENLLKDNCAPESIEFPVSEARVLEDRPLSDKGSGDSSQVTQVSPQRIALRLRPDDSKNFSIQVRQVEDYPVDIYYLMDLSYSMKDDLWSIQNLGTKLATQMRKLTSNLRIGFGAFVDKPVSPYMYISPPEALENPCYDMKTTCLPMFGYKHVLTLTDQVTRFNEEVKKQSVSRNRDAPEGGFDAIMQATVCDEKIGWRNDASHLLVFTTDAKTHIALDGRLAGIVQPNDGQCHVGSDNHYSASTTMDYPSLGLMTEKLSQKNINLIFAVTENVVNLYQNYSELIPGTTVGVLSMDSSNVLQLIVDAYGKIRSKVELEVRDLPEELSLSFNATCLNNEVIPGLKSCMGLKIGDTVSFSIEAKVRGCPQEKEKSFTIKPVGFKDSLIVQVTFDCDCACQAQAEPNSHRCNNGNGTFECGVCRCGPGWLGSQCECSEEDYRPSQQDECSPREGQPVCSQRGECLCGQCVCHSSDFGKITGKYCECDDFSCVRYKGEMCSGHGQCSCGDCLCDSDWTGYYCNCTTRTDTCMSSNGLLCSGRGKCECGSCVCIQPGSYGDTCEKCPTCPDACTFKKECVECKKFDRGALHDENTCNRYCRDEIESVKELKDTGKDAVNCTYKNEDDCVVRFQYYEDSSGKSILYVVEEPECPKGPD
Turning to B1, the Ki in the assay with La-DOTA-c(RGDyK) [1] stood at 26 nM. In addition, the IC50 in the assay with La-DOTA-c(RGDyK) [2] stood at 33 nM.
